# Measured values from article PMC7072561.
# Details: ubiquitination at K63
substance,measurement,value
ubiquitin (HA-tagged): ubiquitin K63R,other,decreases
